According to patent publication US20140154256A1 (published 2014):
Read-outs that look alike come from different tables or passages of the source.

Assays:
mouse IL-1β = mouse IL-1β (mouse, UniProt P10749 118-269); assay: cell-based or functional assay
mouse IL-1α = biological target: T1, mouse IL-1α (mouse, UniProt P01582 115-270); assay: cell-based or functional assay
T1 sequence (looked up): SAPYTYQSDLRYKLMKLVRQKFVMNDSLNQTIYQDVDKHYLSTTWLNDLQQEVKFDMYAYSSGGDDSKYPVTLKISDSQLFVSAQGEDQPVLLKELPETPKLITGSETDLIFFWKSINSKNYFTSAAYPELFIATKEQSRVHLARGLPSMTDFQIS

human IL-12 [1] = biological target: T2, human IL-12 (human, UniProt P29459 23-219; P29460 23-328); assay: cell-based or functional assay
T2 sequence (looked up) 1: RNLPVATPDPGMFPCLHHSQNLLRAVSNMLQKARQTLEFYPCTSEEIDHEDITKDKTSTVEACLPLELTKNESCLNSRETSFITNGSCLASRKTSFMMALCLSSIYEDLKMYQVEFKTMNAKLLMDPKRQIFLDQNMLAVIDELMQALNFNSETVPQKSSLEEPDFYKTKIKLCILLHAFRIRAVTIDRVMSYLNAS
T2 sequence (looked up) 2: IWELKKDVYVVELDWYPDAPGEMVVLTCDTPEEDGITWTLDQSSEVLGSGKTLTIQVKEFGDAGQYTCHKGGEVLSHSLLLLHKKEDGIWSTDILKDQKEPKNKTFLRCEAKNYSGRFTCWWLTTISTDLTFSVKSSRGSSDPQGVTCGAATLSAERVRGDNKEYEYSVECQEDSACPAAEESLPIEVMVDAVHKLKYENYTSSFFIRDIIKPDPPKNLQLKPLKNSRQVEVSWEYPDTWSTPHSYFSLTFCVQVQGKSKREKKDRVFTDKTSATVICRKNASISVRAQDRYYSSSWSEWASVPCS

human IL-12 [2] = biological target: T2, human IL-12; assay: SPR (Biacore)
human IL-12 [3] = biological target: T2, human IL-12; assay: cell-based or functional assay; remark: listed apart in the source
human IL-12 [4] = biological target: T2, human IL-12; assay: SPR (Biacore); remark: listed apart in the source
recombinant human IL-1β [5] = biological target: T3, recombinant human IL-1β (human, UniProt P01584 117-269); assay: cell-based or functional assay
recombinant human IL-1α [6] = biological target: T4, recombinant human IL-1α (human, UniProt P01583 113-271); assay: cell-based or functional assay
T4 sequence (looked up): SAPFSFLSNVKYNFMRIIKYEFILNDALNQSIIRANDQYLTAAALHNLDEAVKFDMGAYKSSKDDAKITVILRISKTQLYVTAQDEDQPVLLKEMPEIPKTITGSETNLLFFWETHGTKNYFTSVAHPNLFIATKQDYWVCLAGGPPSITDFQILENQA

recombinant human IL-1β [7] = biological target: T3, recombinant human IL-1β; assay: SPR (Biacore)
recombinant human IL-1α [8] = biological target: T4, recombinant human IL-1α; assay: SPR (Biacore)
human IL-18 [9] = biological target: T5, human IL-18 (human, UniProt Q14116 37-193); assay: cell-based or functional assay
human IL-18 [10] = biological target: T5, human IL-18; assay: SPR (Biacore)
human IL-12 [11] = biological target: T2, human IL-12; assay: SPR (Biacore); remark: listed apart in the source
human IL-12 [12] = biological target: T2, human IL-12; assay: cell-based or functional assay; remark: listed apart in the source

Chain of mouse IL-1β (P10749 118-269 limits assumed): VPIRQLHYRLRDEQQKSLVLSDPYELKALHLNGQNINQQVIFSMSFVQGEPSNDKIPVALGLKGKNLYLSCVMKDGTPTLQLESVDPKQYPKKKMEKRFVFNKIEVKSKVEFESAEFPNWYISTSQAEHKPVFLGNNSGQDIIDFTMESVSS

B1: mouse anti-mouse IL-1β mAb clone 10G11 (antibody, V domains shown)
VH: EVQLQQSGPELVKPGTSVKMSCKTSGYTFTSYVMHWVKQKPGQGLEWIGYIIPYNDNTKYNEKFKGKATLTSDKSSSTAYMELSSLTSEDSAVYYCARRNEYYGSSFFDYWGQGTTLTVSS
VL: DIQMTQSPASLSASVGETVTITCRGSGILHNYLVWYQQKQGKSPQLLVYSAKILADGVPSRFSGSGSGTQYSLKINSLQPEDFGSYYCQHFWSTPFTFGSGTKLEIKR
Mouse IL-1β
  IC50 (M), in vitro potency (assay not described): 3.7e-10 M

B2: mouse anti-mouse IL-1α mAb clone 9H10 (antibody, V domains shown)
VH: QVILKESGPGILQPSQTLSLTCSFSGFSLSTYGTAVNWIRQPSGKGLEWLAQIGSDDRKLYNPFLKSRITLSEDTSNSQVFLKITSVDTEDSATYYCANGVMEYWGLGTSVTVSS
VL: SIVMTQTPKFLLVSAGDRVTITCKASQSVNHDVAWYQQMPGQSPKLLIYFASNRYTGVPDRFTGSGYGTDFTFTISTVQAEDLAVYFCQQDYSSPYTFGGGTKLEIKR
Mouse IL-1α
  IC50 (M), in vitro potency (assay not described): 2e-10 M

B3: ABT874 (fully human mAb against human IL-12p40) (antibody, V domains shown)
VH: QVQLVESGGGVVQPGRSLRLSCAASGFTFSSYGMHWVRQAPGKGLEWVAFIRYDGSNKYYADSVKGRFTISRDNSKNTLYLQMNSLRAEDTAVYYCKTHGSHDNWGQGTMVTVSS
VL: QSVLTQPPSVSGAPGQRVTISCSGSRSNIGSNTVKWYQQLPGTAPKLLIYYNDQRPSGVPDRFSGSKSGTSASLAITGLQAEDEADYYCQSYDRYTHPALLFGTGTKVTVLG
notes: Fully human mAb with a Vλ
Human IL-12 [1]
  IC50 (M), IL-12-induced IFN-γ production by PHA blast cells (PBMC assay): 5e-12 M
Human IL-12 [2]
  Kd: 0.0647 nM
Human IL-12 [3]
  Potency (IC50), PHA-Blast Assay: 0.005 nM
Human IL-12 [4]
  Kd: 0.065 nM

B4: hIL-1α/bDVD6b-Ig (bispecific antibody, human IgG1, kappa)
heavy: not shown
light: QIVLTQSPAIMSASPGEKVTITCSASSSVSYMHWFQQKPGASPKLWIYSTSNLASGVPARFSGSGSGTSYSLTVSRMEAEDAATYYCQQRSTYPYTFGGGTKLEIKRTVAAPSVFIFPPQIVLTQSPALMSASPGEKVTMTCSASSSVNYMYWYQQKPRSSPKPWIYLTSNLASGVPARFSGSGSGTSYSLTISSMEAEDAATYYCQQWNSNPYTFGGGTKLEMKRTVAAPSVFIFPPSDEQLKSGTASVVCLLNNFYPREAKVQWKVDNALQSGNSQESVTEQDSKDSTYSLSSTLTLSKADYEKHKVYACEVTHQGLSSPVTKSFNRGEC
notes: 6B12.4F6 - long linker - 6H3.1A4.3E11 - C (b-a-C); also called hIL-1a/b DVD6b-Ig
Recombinant human IL-1β [5]
  Potency (IC50) M, MRC-5 bioassay: 0.75 nM
Recombinant human IL-1α [6]
  Potency (IC50) M, MRC-5 bioassay: 1 nM
Recombinant human IL-1β [7]
  Kd: 0.697 nM
Recombinant human IL-1α [8]
  Kd: 0.82 nM

B5: hIL-1α/bDVD6a-Ig (bispecific antibody, human IgG1, kappa)
heavy: not shown
light: QIVLTQSPALMSASPGEKVTMTCSASSSVNYMYWYQQKPRSSPKPWIYLTSNLASGVPARFSGSGSGTSYSLTISSMEAEDAATYYCQQWNSNPYTFGGGTKLEMKRTVAAPSVFIFPPQIVLTQSPAIMSASPGEKVTITCSASSSVSYMHWFQQKPGASPKLWIYSTSNLASGVPARFSGSGSGTSYSLTVSRMEAEDAATYYCQQRSTYPYTFGGGTKLEIKRTVAAPSVFIFPPSDEQLKSGTASVVCLLNNFYPREAKVQWKVDNALQSGNSQESVTEQDSKDSTYSLSSTLTLSKADYEKHKVYACEVTHQGLSSPVTKSFNRGEC
notes: 6H3.1A4.3E11 - long linker - 6B12.4F6 - C (a-b-C); also called hIL-1a/b DVD6a-Ig
Recombinant human IL-1β [5]
  Potency (IC50) M, MRC-5 bioassay: 70 nM
Recombinant human IL-1α [6]
  Potency (IC50) M, MRC-5 bioassay: 2.3 nM
Recombinant human IL-1β [7]
  Kd: 2.09 nM
Recombinant human IL-1α [8]
  Kd: 1.06 nM

B6: hIL-1α/bDVD3a-Ig (bispecific antibody, human IgG1, kappa)
heavy: not shown
light: DIVMTQSQRFMSTSVGDRVSVTCKASQNVGTNIAWYQQKPGQSPRALIYSASYRYSGVPDRFTGSGSGTDFTLTISNVQSVDLAEYFCQQYTRYPLTFGGGTKLEIKRTVAAPETTVTQSPASLSMAIGEKVTIRCITSTDIDVDMNWYQQKPGEPPKLLISQGNTLRPGVPSRFSSSGSGTDFVFIIENMLSEDVADYYCLQSDNLPLTFGAGTKLELKRTVAAPSVFIFPPSDEQLKSGTASVVCLLNNFYPREAKVQWKVDNALQSGNSQESVTEQDSKDSTYSLSSTLTLSKADYEKHKVYACEVTHQGLSSPVTKSFNRGEC
notes: 18F4.2C8 - short linker - 1B12.4H4 - C (a-b-C); also called hIL-1a/b DVD3a-Ig
Recombinant human IL-1α [6]
  Potency (IC50) M, MRC-5 bioassay: 0.75 nM
Recombinant human IL-1β [7]
  Kd: 63.7 nM
Recombinant human IL-1α [8]
  Kd: 0.837 nM

B7: DVD1812SL (anti-IL12/IL18 DVD-Ig, 18-12-C, short linker) (bispecific antibody, human IgG1, kappa)
heavy: not shown
light: EIVMTQSPATLSVSPGERATLSCRASESISSNLAWYQQKPGQAPRLFIYTASTRATDIPARFSGSGSGTEFTLTISSLQSEDFAVYYCQQYNNWPSITFGQGTRLEIKRTVAAPQSVLTQPPSVSGAPGQRVTISCSGSRSNIGSNTVKWYQQLPGTAPKLLIYYNDQRPSGVPDRFSGSKSGTSASLAITGLQAEDEADYYCQSYDRYTHPALLFGTGTKVTVLGTVAAPSVFIFPPSDEQLKSGTASVVCLLNNFYPREAKVQWKVDNALQSGNSQESVTEQDSKDSTYSLSSTLTLSKADYEKHKVYACEVTHQGLSSPVTKSFNRGEC
notes: also called DVD1812HC-SL / DVD1812LC-SL
Human IL-12 [1]
  Potency (IC50, M), IL-12-induced IFN-γ production by PHA blast cells: 3.66e-10 M
Human IL-18 [9]
  Potency (IC50, M), KG-1 bioassay (IFN-γ production): 4e-11 M
Human IL-12 [2]
  Kd: 1.82 nM
Human IL-18 [10]
  Kd: 0.191 nM

B8: anti-IL-12 mAb clone 1D4.1 (antibody, V domains shown)
VH: EVTLRESGPALVKPTQTLTLTCTFSGFSLSKSVMGVSWIRQPPGKALEWLAHIYWDDDKYYNPSLKSRLTISKDTSKNQVVLTMTNMDPVDTATYYCARRGIRSAMDYWGQGTTVTVSS
VL: DIVMTQSPDSLAVSLGERATINCKASQSVSNDVAWYQQKPGQPPKLLIYYASNRYTGVPDRFSGSGSGTDFTLTISSLQAEDVAVYYCQQDYNSPWTFGGGTKVEIKR
notes: Parent anti-IL-12 mAb
Human IL-12 [11]
  Kd: 0.12 nM
Human IL-12 [12]
  Potency (IC50, M), PBMC assay (IL-12): 4.18e-10 M

B9: mIL-1α/β DVD-Ig (bispecific antibody, mouse IgG2a, kappa)
heavy: EVQLQQSGPELVKPGTSVKMSCKTSGYTFTSYVMHWVKQKPGQGLEWIGYIIPYNDNTKYNEKFKGKATLTSDKSSSTAYMELSSLTSEDSAVYYCARRNEYYGSSFFDYWGQGTTLTVSSAKTTAPSVYPLAPQVILKESGPGILQPSQTLSLTCSFSGFSLSTYGTAVNWIRQPSGKGLEWLAQIGSDDRKLYNPFLKSRITLSEDTSNSQVFLKITSVDTEDSATYYCANGVMEYWGLGTSVTVSSAKTTAPSVYPLAPVCGDTTGSSVTLGCLVKGYFPEPVTLTWNSGSLSSGVHTFPAVLQSDLYTLSSSVTVTSSTWPSQSITCNVAHPASSTKVDKKIEPRGPTIKPCPPCKCPAPNLLGGPSVFIFPPKIKDVLMISLSPIVTCVVVDVSEDDPDVQISWFVNNVEVHTAQTQTHREDYNSTLRVVSALPIQHQDWMSGKEFKCKVNNKDLPAPIERTISKPKGSVRAPQVYVLPPPEEEMTKKQVTLTCMVTDFMPEDIYVEWTNNGKTELNYKNTEPVLDSDGSYFMYSKLRVEKKNWVERNSYSCSVVHEGLHNHHTTKSFSRTPGK
light: DIQMTQSPASLSASVGETVTITCRGSGILHNYLVWYQQKQGKSPQLLVYSAKILADGVPSRFSGSGSGTQYSLKINSLQPEDFGSYYCQHFWSTPFTFGSGTKLEIKRADAAPTVSIFPPSIVMTQTPKFLLVSAGDRVTITCKASQSVNHDVAWYQQMPGQSPKLLIYFASNRYTGVPDRFTGSGYGTDFTFTISTVQAEDLAVYFCQQDYSSPYTFGGGTKLEIKRADAAPTVSIFPPSSEQLTSGGASVVCFLNNFYPKDINVKWKIDGSERQNGVLNSWTDQDSKDSTYSMSSTLTLTKDEYERHNSYTCEATHKTSTSPIVKSFNRNEC
Mouse IL-1α
  IC50 (M), in vitro potency (assay not described): 2e-09 M
Mouse IL-1β
  IC50 (M), in vitro potency (assay not described): 8e-10 M

B10: DVD1812LL (anti-IL12/IL18 DVD-Ig, 18-12-C, long linker) (bispecific antibody, human IgG1, kappa)
heavy: not shown
light: EIVMTQSPATLSVSPGERATLSCRASESISSNLAWYQQKPGQAPRLFIYTASTRATDIPARFSGSGSGTEFTLTISSLQSEDFAVYYCQQYNNWPSITFGQGTRLEIKRTVAAPSVFIFPPQSVLTQPPSVSGAPGQRVTISCSGSRSNIGSNTVKWYQQLPGTAPKLLIYYNDQRPSGVPDRFSGSKSGTSASLAITGLQAEDEADYYCQSYDRYTHPALLFGTGTKVTVLGTVAAPSVFIFPPSDEQLKSGTASVVCLLNNFYPREAKVQWKVDNALQSGNSQESVTEQDSKDSTYSLSSTLTLSKADYEKHKVYACEVTHQGLSSPVTKSFNRGEC
notes: also called DVD1812HC-LL / DVD1812LC-LL
Human IL-12 [1]
  Potency (IC50, M), IL-12-induced IFN-γ production by PHA blast cells: 1.18e-10 M
Human IL-18 [9]
  Potency (IC50, M), KG-1 bioassay (IFN-γ production): 7.8e-11 M
Human IL-12 [2]
  Kd: 0.113 nM
Human IL-18 [10]
  Kd: 0.162 nM
